From the nanobody polyreactivity screen of Harvey et al. (2022)

test: yeast display, Sf9 membrane polyspecificity reagent, FACS + sequencing; frameworks hold sequencing errors
How it was run: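 Polyreactivity labels are assigned by the sorting gate from which each nanobody was recovered. The gates were low and high (top ~1%), set on anti-HA fluorescence for expression and streptavidin fluorescence for reagent binding. Before sorting, galactose-induced (36–48 hours) yeast display cells were stained for 1 hour at 4 °C with 10% biotinylated, detergent-solubilized Sf9 membrane reagent.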

Sequence	polyreactivity (PSR sort gate)
QIQLVESGGGLVQAGGSLRLSCSASGSISGYYSRRWYRQAPGKQSEFVASIRYTGARTYYADSVKGRFTISLDNAKNTVYLQMNSLIAEDTAVYFWAADVKRDSVWGGDYWGQGNQVTVSS	low polyreactivity
QIQLVESGGGLVQAGSSLRLSCAASGRTFNTYAMGGYRPAPGNERELVAAITYNGGSTYYADSVKGRFTISRDNAKTTVYLQMNSLKPEYTAVYDCNVRLRTRYRKYDYWGQGTQVTVSS	high polyreactivity
QLHLVESGGGLVQAGGSLRLSCAASGRIFGVYAMGWYRQAPGKERELVASITWRGGSTYYADSVKGRFTISRDNAKNTVYLQMNSLKPEDTAVYYCAAAYWYAYEYWGQGTQVTVSS	high polyreactivity
QLKLEESGGGLVQAGGSLRLSCAASGFIFSYNAMGWYRQAPGKERELDAAISSIGSGTYYADSVKGRFTISRDNAKYTVYLQMNSLKPEDTAVYYCAKYLRPRIGSRYYYWGQGTQVTVSS	high polyreactivity
QLQHVESGGGLVQAGGSLRLSCAASGSTFYRNAKGWSRQAPGKEREFVADITLGGGSTYYADSVKGRFTISRDHAKNTVYLQMKSLKPEDTAVYFCAVDYWQLNYDYWGQGTQVTVSS	low polyreactivity
QLQHVESGVGIVQAGRSLRLSCAASGRTFSHYAMGWYRQAPGKERELVAAIRWRGGSTYYADSVKGRFTISRDNAKNTVYLQMNSRKPEDTAVSYCAAVALYIWTHPSDYWGLGTQVTVSS	high polyreactivity
QLQLEDSAGGLVQAGGSLRLSFAASGFIFDPNAIGWYRQAPAKEREFVAAIRTSGGSTYYADSVKGRFTISRDNAKNTVYLQMNSLKPEDPAVYYCAAKGRYADWSGYGYWGQGTQVTVSS	high polyreactivity
QLQLEESVGGLVQAGVSLRLSCAASGRTFRRYAMGSDRPAPAKERELVATIRSGDNTNYADSVKGRFTISRDNAKNTFYLQMKSLKPEDTAVYYCNRSPKSGQVTYLYSVNAHYDYWGQGTQVTVSS	low polyreactivity
QLQLGESAGGLVQAGGSLRLSCAASGSIFGLNAIGWYIQAPGKERELVAAISSGGSTYYADSVKGRFTISRDNAKNTVYLQMNSLKPEDTAVYYCNAYFQYYDYWGLGTQVTVSS	low polyreactivity
QLQLGESGGGLVQAAGSRRLSCAASGRTLCYYAMGWYSQAPGQDRELVAAITWTGGRTYYADSVKGRFTISRDNPKNSVYLQMNTLKPDDTAVDYCNAVYSPRYYVGGYDYWGQGTQVTVSS	high polyreactivity
QLQLQESGGGLVQAGVCLSCTASGTIFGQGDMGWYRQAPGKERELVATINDGASTYYADSVKGRFTISRDKAKNTVYLQKNSLKPDDNAVYYCAVFTDITTYFGYWGQGTQVTVSS	low polyreactivity
QLQLQESGGGLVQGGGSLRLSCAASGSIYRSWYMGWYRQAPGKERELVASMTEGATTNYAYSVKAALPLAAITRNPVYLQMDSMKPEDTAVYYRAASFGSTYDLVYWGKGTQVTVSS	high polyreactivity
QLQLVDSGGGLVKAGGSLRLSCAASGRTFYRYAMGWYRKAPGKERELVAAINFSTGSTYYADSVKGRFTISRDNAKNTVYLQMNSLKPEDTAVYYCAVPYGSYVGYDYWGQGTQVTVSS	low polyreactivity
QLQLVDSGGGLVQAGGSLRLSCADSGRTYGAYTMGWYRKAPGKERELVAAINWSGGDTYYADSVKVRFTISRDNAKNTVYLQMNRLKPEDTAVYYCNAEPRYGTYDYWGQGTQVTVSS	low polyreactivity
QLQLVDSGGGVVQAGGSLRLSCAASGSTFSRYAMGWYRQAPGKEMELVAAISTRGGSTRYADSVKGRFTISRDNAKNTVYLQMYCRKPEDTAVYYGAALGQGRTSATSFVDYEYWGQGTQVTVSS	high polyreactivity
QLQLVDSGGGVVQAGGSLRLSCAASGSTYAQYVMGWYRPATGKEKELVAAISLSGGSTYYAASVKGRFTISRDNAKNTVYLQMNSLKPVDTAVYYCSARGYGPGLYSSRQNEYYYWGQGTQVTVSS	high polyreactivity
QLQLVDSGRGLVQAGGSLRLSSAASGSIFVTNGMGWYRQAPGKERELVAVISWGGGNTYYADSVKGRFTISRDNAKNTVYLQMNNLKPEDTAVYYCAVELYWDYYFTYDYWGQGTQVTVSS	low polyreactivity
QLQLVESAGGLVQAGGSLRLSCAASASTFGSYAMGWYRQATGKETELDASNTSAGSTNYADSVKGRFTISRDNAKNTVYLQMNSLKPVDTEVYYCNDVRYYSYQYVPEVTHRYGFWGQGTQVTVSS	high polyreactivity
QLQLVESAVGLDQAVDILRLSSAASGFIFPGNMGWYRKAPGKETELVAAISWSGGSTRYADSVKGRFTISRDNAKNTVYLQMNSLKPEDTAVYYCAASLSGKRFNKRYYWGQGTQVTVSS	high polyreactivity
QLQLVESGGALVQAGGSLRFSCAASARTYGKNAMGWYRQAPGKERELDAAITWSGSSTYYADSVKGRFTISRHNAKNTVYLQMNSLKAEDTAVYYCAKEDWQLDYTVTWRKMDSWGQVTQVTVSS	low polyreactivity
QLQLVESGGGLDQAGVSLRLSCAASGFIFRNYAIGSYRQAPGNESELVAAITRSGTSTYYADSVKGRFSISRDNAKNTVYLQMNSLKPEDTAVYYCNTRYWLYYHRFDYWGQGTQVTVSS	high polyreactivity
QLQLVESGGGLLQAGGSLRLSCAAPGSTFAPNTMGWNRQPPGKARELVARITSSDGSTSYADSVKGRFTISRDNAKNTVYLQMNSLKPEDTAVYYCAAQYSYSMDYWGQGTQVTVSS	low polyreactivity

Sequence	polyreactivity (PSR sort gate)
QLQLVESGGGLVKAGGSLRLSCAASGRTLPVYAMGWYRQAPGKERELVAAIRWRGGRTYYADSVKGRFTISRDNAKNTVYLQMNSLKPEDTAVYYCAATTNTDRDYWGQGTQVTVSS	high polyreactivity
QLQLVESGGGLVQAGGRLRLSCAASARILSSYAMGSYRQAPGKERELVARISYSGGRTYYADSVKGRFTISRDNAKNTVYLQMNSLKPEDTAVYYCAAVSRVHFSYSYDYWGQGTEVTVSS	high polyreactivity
QLQLVESGGGLVQAGGRLRLSCAASGFIFWSYAMGWYRQAPGKERELVAAISARGGSTYYADSVKGRFTISRDNSKNTVYLQMNSLKPEDTAVYYCAAPRASGYYWGKGTQVTVSS	high polyreactivity
QLQLVESGGGLVQAGGSLRLSCAAAGSTFRLYAMGWYRPAPGKERKLVAAISGRGDRTYYADSVKGRFTISRDNAKNAVYLQMISLKPEDTAVYSCAAKSGFIPYDYWGQGTQVTVSS	high polyreactivity
QLQLVESGGGLVQAGGSLRLSCAASGFIFETYAMGCYIQAPGKERELVAAISRGASTYYADSVKGRFTISRDNAKNTVYLQMNSLKPEYTAVYYCAAKRLSWHRYGYWGQGTQVTVSS	low polyreactivity
QLQLVESGGGLVQAGGSLRLSCAASGFTFDSYAMGWYRQAPGKERELVAAITWDGGSTYYADSVKGRFTISRDNAKNTVYLQMNSLKPEDTAVYYCAADFGTISIDVYSWMDYWGQGTQVTVSS	low polyreactivity
QLQLVESGGGLVQAGGSLRLSCAASGFTFKYNARGWYSQAPGKARELVASISSGSTTYADSVKGRFTISRDNAKNTVYLQINSLKPEDTAVYYCAASVSRGKRFRYGYVFKMDHWGQGTQVTVSS	low polyreactivity
QLQLVESGGGLVQAGGSLRLSCAASGFTIRRYAMGCYRQAPGKERELVAAITWSAGSTYYADSVKGRFTISRDNAKNTVYLQMNSLKPEDTAVYYCAARWTRWGADSGYYWGKGTQVTVSS	high polyreactivity
QLQLVESGGGLVQAGGSLRLSCAASGISFSSYTMGWYRQAHGKERELVAAITWRGGRTYYADSVKGRFKISRDNAKNTVFLQMHSLKTEDTSVFYCAARDVAGYSTRFYYWGQGTQVTVSS	high polyreactivity
QLQLVESGGGLVQAGGSLRLSCAASGLIFTYYAMGWYRQAPGKERELVAAISGRGGSTYYADSVKGRFTISRDSAMKTVYLQMNSLNPEDTAVYYCAAVRWAGYVSDYGYWGQGTQVTVSS	high polyreactivity
QLQLVESGGGLVQAGGSLRLSCAASGLTFYHYAMGWYRQAPGKERELVAAISTSGGSTYYADSVKGRFTVSRDNAKNTVYLQMNSLKPEDTAVYYCATERTYRYDFWGQGTQVTVSS	high polyreactivity
QLQLVESGGGLVQAGGSLRLSCAASGLTSPGNAMGWYRQAPGKEMELVAAISSGGNTYYADSVKGRFTISRDNAKNTVYLQMNSLKPEDTAVYYCNAGGGTNYGSGYWFGYYYWGQGSQVTVSS	low polyreactivity
QLQLVESGGGLVQAGGSLRLSCAASGNTFLLNAMGWYRQAPGKERELVAGIRWGAGRSYYADSVKGRFTISRDNAMNTVYVQMNSLKAEDTAVYSGAADPWSGSDYWGQGTQVTVSS	low polyreactivity
QLQLVESGGGLVQAGGSLRLSCAASGNTFYQYAMGWYRQAPGKERELVAGIRYNGGSTYYADSVKGRFTISRDNAKNTVDLQMNSLKPEDTAVYYCATKGYTGYAYRYGYWGQGTQVTVSS	high polyreactivity
QLQLVESGGGLVQAGGSLRLSCAASGRIFSPYAMGWYSQAPGTASELVARISWRGSRTYFADSVKRRFTISRDNAKNTVYLQMNSLKPEDTAVYYCNAVVYRKPLRRDYWGQGTQVTVSS	high polyreactivity
QLQLVESGGGLVQAGGSLRLSCAASGRIFSRYAMGWYRQATGKERELVAAINKSGGSTYYADSVKGRFTFSRDNAKNTVYLQMNSLKPEDTAVYYCNAVYYWYKGDYWGQGTLVTVSS	high polyreactivity
QLQLVESGGGLVQAGGSLRLSCAASGRIFVKYAMGWYRQAPGKERELVAAISNGASTNYADSVKGRFTISRDNAKNTVYLQMNSLKPEDTAVYYCAASFSRYYRKRYDYWGQGTQVTVSS	high polyreactivity
QLQLVESGGGLVQAGGSLRLSCAASGRTFRYNAMGWYRQAPGKERELVASISWRGGSTYYADSVKGRFTISRDNAKNTVYLQMNSLKPEDTAVYYCVADAAHSEYDYWGQGTQVTVSS	high polyreactivity
QLQLVESGGGLVQAGGSLRLSCAASGRTFYQYAMGWYRKAPGKERELVAAITTSGGSTYYADSVKGRFTISRDNAKNTVYLQMNSLKPEYTAVYYCAAPYTGYRERGSYKSDYWGQGTQVTVSS	low polyreactivity
QLQLVESGGGLVQAGGSLRLSCAASGRTLQWSTMGGYRQAPGKERELVAVISKSGGRTYYADSVKGRFTISRDNAKNTVYLQMNSLKPEDTAVYYCNTPHRSSSVRSYGYWGQGTQVTVSS	high polyreactivity
QLQLVESGGGLVQAGGSLRLSCAASGSIFCQNNMGWYRQAPGKERELVDTITSAGSTYYADSVKGRFTISRANAQNTVYLQMNSLKPEYTAVFYCAAELYRYGFYVPIYPYSYDYWGQGTQVTVSS	low polyreactivity
